Among the data in patent publication US20240285738A1 (IMMATICS BIOTECHNOLOGIES, published 2024) are peptide exchange yield values, retold here.

B1: LAIVPVNTL (peptide)
peptide: LAIVPVNTL
B2: FILPSSLYL (peptide)
peptide: FILPSSLYL
B3: FIMEGGAMVL (peptide)
peptide: FIMEGGAMVL

This assay concerns the target T1, HLA-A*02:01 (human).
T1 construct: MHC monomer first loaded with a UV-sensitive peptide that is cleaved by UV light and exchanged for the test peptide; captured on streptavidin plates and detected with anti-b2m; also called peptide-receptive MHC molecules; MHC class I
In words: UV peptide-exchange ELISA, exchange yield grade. An excerpt:
Candidate peptides for T cell based therapies according to the present invention were further tested for their MHC binding capacity (affinity). The individual peptide-MHC complexes were produced by UV-ligand exchange, where a UV-sensitive peptide is cleaved upon UV-irradiation, and exchanged with the peptide of interest as analyzed. Only peptide candidates that can effectively bind and stabilize the peptide-receptive MHC molecules prevent dissociation of the MHC complexes. To determine the yield of the exchange reaction, an ELISA was performed based on the detection of the light chain (B2m) of stabilized MHC complexes. The assay was performed as generally described in Rodenko et al. (Rodenko et al., 2006).
96 well MAXISorp plates (NUNC) were coated over night with 2 μg/ml streptavidin in PBS at room temperature, washed 4× and blocked for 1 h at 37° C. in 2% BSA containing blocking buffer. Refolded HLA-A*02:01/MLA-001 monomers served as standards, covering the range of 15-500 ng/ml. Peptide-MHC monomers of the UV-exchange reaction were diluted 100 fold in blocking buffer. Samples were incubated for 1h at 37° C., washed four times, incubated with 2 μg/ml HRP conjugated anti-β2m for 1h at 37° C., washed again and detected with TMB solution that is stopped with […]. Absorption was measured at 450 nm. Candidate peptides that show a high exchange yield (preferably higher than 50%, most preferred higher than 75%) are generally preferred for a generation and production of antibodies or fragments thereof, and/or T cell receptors or fragments thereof, as they show sufficient avidity to the MHC molecules and prevent dissociation of the MHC complexes.
In turn, B1 showed a peptide exchange yield of 50 to 75%.

The molecule B2 came in with a peptide exchange yield of no less than 75%.

With B3, the peptide exchange yield lay within 50 to 75%.
